The numbers were not newly measured in article PMC8557391, which cites them from elsewhere.

The target of this data set is Keap1 (Homo sapiens) (UniProt Q14145). Kind of data set: FP.
Sequence of UniProt Q14145 (Q14145 whole entry): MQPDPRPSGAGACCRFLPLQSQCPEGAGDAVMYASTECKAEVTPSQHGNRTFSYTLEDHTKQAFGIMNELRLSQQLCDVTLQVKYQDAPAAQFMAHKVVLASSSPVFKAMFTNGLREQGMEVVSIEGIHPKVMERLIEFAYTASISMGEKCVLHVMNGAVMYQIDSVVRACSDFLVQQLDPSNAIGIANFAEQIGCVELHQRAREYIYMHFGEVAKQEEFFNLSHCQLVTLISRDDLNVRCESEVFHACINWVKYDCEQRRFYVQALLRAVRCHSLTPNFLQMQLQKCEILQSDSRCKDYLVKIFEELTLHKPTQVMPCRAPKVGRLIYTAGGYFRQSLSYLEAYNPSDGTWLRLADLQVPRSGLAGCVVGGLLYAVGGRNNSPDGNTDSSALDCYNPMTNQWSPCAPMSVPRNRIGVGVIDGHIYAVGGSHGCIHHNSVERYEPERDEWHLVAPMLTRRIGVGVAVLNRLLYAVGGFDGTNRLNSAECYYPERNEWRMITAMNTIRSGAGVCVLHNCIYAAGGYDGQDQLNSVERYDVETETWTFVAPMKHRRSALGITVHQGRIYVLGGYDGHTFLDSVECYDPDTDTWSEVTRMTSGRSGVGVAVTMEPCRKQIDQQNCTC

Take Nrf2 9mer peptide (from UniProt Q16236): the Kd (usually the equilibrium constant for the complex coming apart) was 0.054 µM.
Turning to “Nrf2 10mer peptide (from UniProt Q16236)”, the Kd was 0.051 µM.
